HDX-MS: unfolded proportion of the MBP peptide 347-360 and cross-linking efficiency relative to Vps24-2^136C data for two molecules are collected here from PMC4456219.

Test [1] concerns the target MBP-Vps24-2-ssrA (Saccharomyces cerevisiae) (UniProt P36095).
For test [2], the target named is mixed Vps4 hexamer of full-length Vps4^CF and Vps4^(CF 206C ΔMIT) (Saccharomyces cerevisiae) (UniProt P52917). As to the kind of experiment: cross-linking.

“ClpX (from UniProt P0A6H1 1-424) (enzyme)” registered an HDX-MS: unfolded proportion of the MBP peptide 347-360 at 10, 30 and 60 s in test [1] of 30%.

B1: Vps24-2^92C (I92C single cysteine mutant of Vps24-2) (protein)
chain: MDYIKKAIWGPDPKEQQRRIRSVLRKNGRNIEKSLRELTVLQNKTQQLIKKSAKKNDVRTVRLYAKELYQINKQYDRMYTSRAQLDSVRMKCDEAIRMNTLSNQMADSAGLMREVNSLVRLPQLRNTMIELEKELMKSGIISEMVDDTMESVGDVGEEMDEAVDEEVNKIVEQYTNEKFSQLQSTPQNLVSNAPIAETAMGIPEPIGAGSEFHGNPDDDLQARLNTLKKQT
modifications: Cys92 activated as a mixed disulfide with DTNB
In turn, B1 had a cross-linking efficiency relative to Vps24-2^136C in test [2] of 60%.
